The values below come from publication PMC2174332.

A value given as a limit tells only on which side of the number the result lay.

For this assay, the target named is muscle-specific receptor tyrosine kinase (MuSK), Torpedo orthologue (Torpedo (endogenous in electric tissue)). Put plainly: cross-linking.

On to “40-kD COOH-terminal fragment of MAGI-1c (Torpedo) (domain or fragment)”, for which the percent of total MuSK in the 140-kD cross-link product is less than 30%.
